# Measured values as given in the supplement of paper PMC9112550, “Optimization of the antimicrobial peptide Bac7 by deep mutational scanning” (BMC Biology, 2022).
# Tested on: Escherichia coli TOP10
# Assay: shrunken log2 fold change of peptide-encoding DNA abundance (4.5 h post-induction vs induction); higher = less antimicrobial activity (less host growth inhibition)
# Details: time post-induction: 4.5 h; library: site-saturation at positions 5, 18, 19, 20
# 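Also: peptides expressed intracellularly from a pBAD plasmid library in pooled LB shake-flask culture, induced with 0.3% L-arabinose, DNA abundance read by NGS, three biological replicates, DESeq2 with apeglm shrinkage.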
row,Sequence,shrunken log2 fold change
1,RRIRPRPPRLPRPRPRPGRFPRP,0.434
2,RRIRHRPPRLPRPRPRPLGGPRP,-0.0164
3,RRIRCRPPRLPRPRPRPDDNPRP,0.423
4,RRIRVRPPRLPRPRPRPGKIPRP,-0.346
5,RRIRHRPPRLPRPRPRPIIPPRP,-0.197
6,RRIRSRPPRLPRPRPRPPARPRP,0.876
7,RRIRTRPPRLPRPRPRPFDFPRP,-0.271
8,RRIRNRPPRLPRPRPRPMPSPRP,0.0832
9,RRIRPRPPRLPRPRPRPQYKPRP,-0.129
10,RRIRARPPRLPRPRPRPAIAPRP,0.547
11,RRIRDRPPRLPRPRPRPELEPRP,0.05
12,RRIRYRPPRLPRPRPRPPPFPRP,0.328
13,RRIRRRPPRLPRPRPRPRNKPRP,0.0888
14,RRIRSRPPRLPRPRPRPAHSPRP,-0.332
15,RRIRHRPPRLPRPRPRPWGMPRP,-0.0998
16,RRIRFRPPRLPRPRPRPTKRPRP,0.269
17,RRIRDRPPRLPRPRPRPSSFPRP,-0.178
18,RRIRKRPPRLPRPRPRPSAEPRP,0.787
19,RRIRIRPPRLPRPRPRPPVDPRP,-0.111
20,RRIRKRPPRLPRPRPRPECGPRP,1.01
21,RRIRCRPPRLPRPRPRPKTIPRP,-0.141
22,RRIRYRPPRLPRPRPRPTMFPRP,-0.234
23,RRIRLRPPRLPRPRPRPWYSPRP,-0.103
24,RRIRDRPPRLPRPRPRPFLCPRP,0.0956
25,RRIRYRPPRLPRPRPRPDCTPRP,-0.268

row,Sequence,shrunken log2 fold change
1,RRIRNRPPRLPRPRPRPNHWPRP,-0.125
2,RRIRIRPPRLPRPRPRPRTIPRP,-0.141
3,RRIRDRPPRLPRPRPRPQCPPRP,-0.00693
4,RRIRDRPPRLPRPRPRPQVCPRP,0.19
5,RRIRVRPPRLPRPRPRPSWMPRP,-0.139
6,RRIRERPPRLPRPRPRPTPKPRP,0.525
7,RRIRIRPPRLPRPRPRPTDTPRP,-1.86
8,RRIRARPPRLPRPRPRPRDWPRP,0.577
9,RRIRQRPPRLPRPRPRPVLFPRP,0.166
10,RRIRTRPPRLPRPRPRPNHFPRP,-0.316
11,RRIRARPPRLPRPRPRPNCCPRP,0.131
12,RRIRKRPPRLPRPRPRPDAHPRP,0.534
13,RRIRIRPPRLPRPRPRPPDPPRP,0.243
14,RRIRMRPPRLPRPRPRPAYEPRP,0.0216
15,RRIRCRPPRLPRPRPRPMFAPRP,0.186
16,RRIRCRPPRLPRPRPRPWPHPRP,-0.0205
17,RRIRYRPPRLPRPRPRPSIHPRP,-0.722
18,RRIRTRPPRLPRPRPRPDHIPRP,-0.242
19,RRIRARPPRLPRPRPRPHAKPRP,-0.0556
20,RRIRMRPPRLPRPRPRPICMPRP,0.024
21,RRIRSRPPRLPRPRPRPWPDPRP,-0.14
22,RRIRPRPPRLPRPRPRPVEKPRP,0.00127
23,RRIRQRPPRLPRPRPRPVWHPRP,0.0663
24,RRIRCRPPRLPRPRPRPKPDPRP,0.296
25,RRIRYRPPRLPRPRPRPSGHPRP,-0.265

row,Sequence,shrunken log2 fold change
1,RRIRVRPPRLPRPRPRPHQDPRP,-0.264
2,RRIRRRPPRLPRPRPRPLWWPRP,0.48
3,RRIRSRPPRLPRPRPRPSACPRP,-0.0945
4,RRIRLRPPRLPRPRPRPNTYPRP,-0.522
5,RRIRTRPPRLPRPRPRPAKMPRP,-0.0252
6,RRIRDRPPRLPRPRPRPDICPRP,-0.0418
7,RRIRRRPPRLPRPRPRPESWPRP,1.12
8,RRIRLRPPRLPRPRPRPYKWPRP,-0.0271
9,RRIRMRPPRLPRPRPRPNHVPRP,-0.409
10,RRIRCRPPRLPRPRPRPTREPRP,0.684
11,RRIRYRPPRLPRPRPRPTRHPRP,-0.00457
12,RRIRKRPPRLPRPRPRPYRPPRP,0.0318
13,RRIRKRPPRLPRPRPRPCRKPRP,0.0153
14,RRIRCRPPRLPRPRPRPDFGPRP,-0.275
15,RRIRVRPPRLPRPRPRPYCPPRP,-0.462
16,RRIRNRPPRLPRPRPRPELWPRP,0.604
17,RRIRDRPPRLPRPRPRPANQPRP,0.253
18,RRIRYRPPRLPRPRPRPNSCPRP,0.0432
19,RRIRCRPPRLPRPRPRPCHAPRP,-0.191
20,RRIRQRPPRLPRPRPRPWMIPRP,0.0219
21,RRIRKRPPRLPRPRPRPEKSPRP,0.0144
22,RRIRQRPPRLPRPRPRPIHYPRP,0.0133
23,RRIRERPPRLPRPRPRPRLNPRP,-0.156
24,RRIRGRPPRLPRPRPRPCVNPRP,0.0252
25,RRIRQRPPRLPRPRPRPTSGPRP,-0.0104
